Experimental data taken from US20220073619A1 (IMCHECK THERAPEUTICS, published 2022).
Read-outs that look alike come from different tables or passages of the source.

Columns and labels:
[1] = target: Human BTN3A, membrane displayed on cells (human PBMCs, Daudi cells, SKOV-3 cells) (human), O00481; test: cell-based or functional assay
[2] = target: T1, Human BTN3A1 His-tagged antigen (Sino Biological Cat. No. 15973-H08H) (human, UniProt O00481 30-254); test: SPR Biacore T200, single cycle kinetics, BTN3A1-His captured on anti-His CM5 chip, F(ab′)2 as analyte, bivalent analyte model (ka 1), 25 C
T1 construct: Bought recombinant protein; also called recombinant human BTN3A1-His; not shown: His tag
Procedure: (§1) All single cycle kinetic experiments were run at 25° C. with HBS-P+ running buffer (pH 7.4) containing 0.1% BSA (GE Healthcare, Little Chalfont, UK).
(§2) Human BTN3A1 His-tagged antigen (Sino Biological, Beijing, China) was diluted in running buffer to a final concentration of 0.4 μg/mL. At the start of each cycle, BTN3A1-His was captured onto Fc2 of CM5 sensor chip pre-coupled using a His capture kit (GE Healthcare, Little Chalfont, UK) with standard amine chemistry at a flow rate of 10 μL/min. An immobilization level (RL) of ˜17 RU or 8 RU, the different theoretical values to obtain a RMax of ˜25 RU was used for the analytes Fab and F(ab′)₂ respectively. The surface was then allowed to stabilize. Single cycle kinetics data was obtained with the purified samples (Fab and F(ab′)₂)) at a flow rate of 40 μL/min to minimize any potential mass transfer effects. The signal from the reference channel Fc1 (no antigen capture) was subtracted from that of Fc2 to correct for differences in non-specific binding to the reference surface. […] The signal for BTN3A1-His blank runs (no analyte) were subtracted to correct for differences in surface stability. The association phase for the five injections of increasing concentrations was monitored for 240 seconds each time and a single dissociation phase was measured for 2000 seconds following the last injection of analyte. […]

[3] = target: T1, Human BTN3A1 His-tagged antigen (Sino …); test: SPR Biacore T200, single cycle kinetics, BTN3A1-His captured on anti-His CM5 chip, F(ab′)2 as analyte, bivalent analyte model (kd 1), 25 C
Procedure: as §1, §2

[4] = target: T1, Human BTN3A1 His-tagged antigen (Sino …); test: SPR Biacore T200, single cycle kinetics, BTN3A1-His captured on anti-His CM5 chip, F(ab′)2 as analyte, bivalent analyte model (kd 2), 25 C
Procedure: as §1, §2

[5] = target: T1, Human BTN3A1 His-tagged antigen (Sino …); test: BLI OctetRed96, F(ab′)2 loaded on FAB2G (anti-human CH1) sensors, human BTN3A1 as analyte 1.87-60 nM, 1:1 model, 30 C
Procedure: All runs (including loading, equilibration, association/dipping of sensors into analyte, dissociation and regeneration) were performed in black 96-well plates (Greiner) at 30° C. with shaking 1000 rpm using an OctetRed96 (ForteBio). […] The association of antibody or fragments with various concentrations of human BTN3A1 (60, 30, 15, 7.5, 3.75 and 1.87 nM) was monitored for 300 s, and the dissociation was followed for typically 500 s in kinetic buffer. Fitting of the data and constant measurements were performed with the Octet Red system software (version 7.1) using the 1:1 model. A control with an irrelevant antibody was used in order to assess the absence of non-specific binding of the target protein.

[6] = target: T1, Human BTN3A1 His-tagged antigen (Sino …); test: SPR Biacore T200, single cycle kinetics, BTN3A1-His captured on anti-His CM5 chip, F(ab′)2 as analyte, bivalent analyte model (ka 1), 25 C; remark: listed apart in the source
Procedure: (§3) Human BTN3A1 His-tagged antigen (Sino Biological, Beijing, China) was diluted in running buffer to a final concentration of 0.4 μg/mL. At the start of each cycle, human BTN3A1-His was captured onto Fc2 of CM5 sensor chip pre-coupled using a His capture kit (GE Healthcare, Little Chalfont, UK) with standard amine chemistry at a flow rate of 10 μL/min. An immobilization level (RL) of ˜34 RU, 16 RU or 11 RU, the different theoretical values to obtain a RMax of ˜50 RU was used for the analytes Fab, F(ab′)₂ and IgG respectively. The surface was then allowed to stabilize. Single cycle kinetic data was obtained with the purified samples (Fab, F(ab′)₂ and IgG) at a flow rate of 40 μL/min to minimize any potential mass transfer effects. The signal from the reference channel Fc1 (no antigen capture) was subtracted from that of Fc2 to correct for differences in non-specific binding to the reference surface. The signal for human BTN3A1-His blank runs (no analyte) were subtracted to correct for differences in surface stability. The association phase for the five injections of increasing concentrations was monitored for 240 seconds each time and a single dissociation phase was measured for 1400 seconds following the last injection of analyte. Regeneration of the chip surface was conducted using two injections of 10 mM glycine-HCL pH 1.5 followed by a stabilization period of 240 seconds.

[7] = target: T1, Human BTN3A1 His-tagged antigen (Sino …); test: SPR Biacore T200, single cycle kinetics, BTN3A1-His captured on anti-His CM5 chip, F(ab′)2 as analyte, bivalent analyte model (kd 1), 25 C; remark: listed apart in the source
Procedure: as §3

[8] = target: T1, Human BTN3A1 His-tagged antigen (Sino …); test: SPR Biacore T200, single cycle kinetics, BTN3A1-His captured on anti-His CM5 chip, F(ab′)2 as analyte, bivalent analyte model (kd 2), 25 C; remark: listed apart in the source
Procedure: as §3

T1 sequence (O00481 30-254 limits assumed): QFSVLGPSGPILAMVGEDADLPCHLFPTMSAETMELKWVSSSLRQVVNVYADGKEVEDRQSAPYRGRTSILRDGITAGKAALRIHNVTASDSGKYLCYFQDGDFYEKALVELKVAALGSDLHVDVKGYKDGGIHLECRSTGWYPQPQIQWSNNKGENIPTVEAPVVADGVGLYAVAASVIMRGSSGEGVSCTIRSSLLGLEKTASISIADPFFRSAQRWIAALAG

% CD107+ of Vγ9Vδ2 T cells, co-culture with Daudi cells, fragment at 10 µg/mL [1]	kon [2]	koff [3]	kd 2 [4]	% CD25+ of Vγ9Vδ2 T cells within PBMCs, 67 nM, 5 days [1]	% CTV dilution of Vγ9Vδ2 T cells within PBMCs, 67 nM, 5 days [1]	EC50 (nM) in Vγ9Vδ2 T cell degranulation assay (CD107) against Daudi [1]	EC50 (nM) in Vγ9Vδ2 T cell degranulation assay (CD107) against SKOV-3 [1]	Kd [5]	koff [5]	kon [5]	kon [6]	koff [7]	kd 2 [8]	Binder
40.8%	213000 M⁻¹ s⁻¹	0.00112 s⁻¹	34.1 s⁻¹	–	–	–	–	–	–	–	–	–	–	Chimeric 103.2 F(ab′)2 fragment (other) VH: QVQMQQSGAEVVRPGTSVKVSCKASGYAFTSYLIHWIKQRPGQGLEWIGVINPRSGDSHYNEKFKDRTTLTADQSSSTAYMQLSSLTSDDSAVYFCARSDYGAYWGQGTLVTVSS VL: DIVLTQSPVTLSVTPGDSVSLSCRASQSISNNLHWYRQKSHESPRLLIKYASQSIFGIPSRFSGSGSGTEFTLSINSVETEDFGIYFCQQSNSWPHTFGTGTKLELK
–	–	–	–	43.2%	42%	0.0005 nM	0.0005 nM	1230 pM	0.000243 s⁻¹	198000 M⁻¹ s⁻¹	689000 M⁻¹ s⁻¹	0.00162 s⁻¹	35.9 s⁻¹	Humanized 103.2 (hu103.2) F(ab′)2 fragment (other) VH: QVQMQQSGAEVKKPGASVKVSCKASGYAFTSYLIHWIKQRPGQGLEWIGVINPRSGDSHYNEKFKDRVTMTADQSISTAYMELSRLRSDDTAVYYCARSDYGAYWGQGTLVTVSS VL: EIVLTQSPATLSVSPGERATLSCRASQSISNNLHWYQQKPGQAPRLLIKYASQSAFGIPARFSGSGSGTEFTLTISSLQSEDFAVYFCQQSNSWPHTFGQGTKLEIK
